According to the supplement of paper PMC12338614:
± gives the uncertainty stated by the source.

B1: library; numbered along this chain (parent)
chain: MEVVDPQQLGMFTEGELMSVGMDTFIHRIDSTEVIYQPRRKRAKLIGKYLMGDLLGEGSYGKVKEVLDSETLCRRAVKILKKKKLRRIPNGEANVKKEIQLLRRLRHKNVIQLVDVLYNEEKQKMYMVMEYCVCGMQEMLDSVPEKRFPVCQAHGYFCQLIDGLEYLHSQGIVHKDIKPGNLLLTTGGTLKISDLGVAEALHPFAADDTCRTSQGSPAFQPPEIANGLDTFSGFKVDIWSAGVTLYNITTGLYPFEGDNIYKLFENIGKGSYAIPGDCGPPLSDLLKGMLEYEPAKRFSIRQIRQHSWFRKKHPPAEAPVPIPPSPDTKDRWRSMTVVPYLEDLHGADEDEDLFDIEDDIIYTQDFTVPGQVPEEEASHNGQRRGLPKAVCMNGTEAAQLSTKSRAEGRAPNPARKACSASSKIRRLSACKQQ

Variants of: B1
Assay: STK11 functional score (HeLa growth suppression), rescaled enrichment; synonymous median = 1, nonsense median = 0 (normalised score)
Conditions: with HeLa; variant type: missense
Summary of the method: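 Codon-randomised (POPCode) libraries of codon-optimised STK11 were integrated by Bxb1 at an AAVS1 landing pad in HeLa, in three regions each transfected three times. Integrants (BFP-negative, mCherry-positive) were FACS-sorted 4–5 days after electroporation and grown about two weeks; tiled gDNA amplicons were sequenced on NextSeq (~2 million reads per tile). The functional score is the wild-type-corrected post/pre-selection log ratio, rescaled to synonymous and nonsense medians, merged over codons and replicate transfections, with bootstrapped error.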

In order of falling STK11 functional score:
1. S142Q  1.69 ± 0.26
2. I260R  1.66 ± 0.16
3. K235A  1.65 ± 0.24
4. K83P  1.64 ± 0.41
5. S428W  1.62 ± 0.15
6. D162M  1.62 ± 0.2
7. Q7I  1.61 ± 0.17
8. W332E  1.61 ± 0.29
9. T336E  1.61 ± 0.15
10. D162W  1.6 ± 0.22
11. R310I  1.59 ± 0.16
12. S422D  1.59 ± 0.12
13. I424A  1.58 ± 0.27
14. G346M  1.58 ± 0.15
15. G385T  1.58 ± 0.21
16. R415V  1.57 ± 0.28
17. V20R  1.56 ± 0.14
18. L427R  1.56 ± 0.2
19. S428V  1.56 ± 0.28
20. P369G  1.56 ± 0.26
21. N412Y  1.55 ± 0.3
22. L341E  1.55 ± 0.15
23. E342P  1.53 ± 0.15
24. P369T  1.53 ± 0.11
25. L427K  1.53 ± 0.13
26. T363Q  1.52 ± 0.15
27. T32W  1.52 ± 0.2
28. Q170C  1.51 ± 0.44
29. K235W  1.51 ± 0.13
30. Q123S  1.49 ± 0.17
31. S404L  1.47 ± 0.25
32. L400F  1.46 ± 0.14
33. G171I  1.46 ± 0.18
34. T209V  1.42 ± 0.31
35. E120P  1.42 ± 0.28
36. E396F  1.41 ± 0.2
37. T230R  1.39 ± 0.35
38. E2V  1.36 ± 0.83
39. P38E  1.36 ± 0.39
40. E357V  1.33 ± 0.25
41. Q214D  1.33 ± 0.23
42. E265D  1.31 ± 0.49
43. M139C  1.29 ± 0.23
44. S283R  1.29 ± 0.41
45. Q364F  1.28 ± 0.27
46. Y272E  1.28 ± 0.18
47. K269P  1.26 ± 0.41
48. P314R  1.26 ± 0.22
49. G268C  1.25 ± 0.42
50. K287F  1.25 ± 0.2
51. S299I  1.25 ± 0.34
52. A295N  1.24 ± 0.13
53. K62G  1.23 ± 0.67
54. R39W  1.22 ± 0.49
55. D343V  1.21 ± 0.64
56. I356M  1.21 ± 0.53
57. L54S  1.2 ± 0.21
58. Q137P  1.19 ± 0.32
59. D141V  1.18 ± 0.36
60. C151V  1.17 ± 0.39
61. E16Q  1.16 ± 0.77
62. Q305R  1.14 ± 0.47
63. M125I  1.11 ± 0.19
64. S401R  1.11 ± 0.38
65. L290C  1.06 ± 0.3
66. E65N  1.06 ± 0.14
67. C132E  1.06 ± 0.36
68. D162I  1.05 ± 0.58
69. D208T  1.04 ± 0.2
70. G268N  1.03 ± 0.38
71. M125G  1.03 ± 0.16
72. T185F  0.993 ± 0.24
73. N380S  0.982 ± 0.22
74. E57V  0.968 ± 0.17
75. S193C  0.963 ± 0.17
76. A316L  0.961 ± 0.14
77. F255T  0.94 ± 0.13
78. L184H  0.93 ± 0.43
79. G61S  0.916 ± 0.13
80. I356S  0.889 ± 0.32
81. L164T  0.864 ± 0.19
82. I248W  0.853 ± 0.099
83. Q220R  0.808 ± 0.13
84. I172G  0.806 ± 0.26
85. S325V  0.786 ± 0.11
86. S193V  0.77 ± 0.24
87. Y126F  0.719 ± 0.13
88. E70Q  0.703 ± 0.26
89. Y166M  0.651 ± 0.08
90. Q7G  0.637 ± 0.11
91. Q159K  0.6 ± 0.18
92. K191F  0.589 ± 0.19
93. I88W  0.401 ± 0.49
94. L160E  0.305 ± 0.092
95. V114L  0.271 ± 0.093
96. H202R  0.161 ± 0.26
97. T402H  0.157 ± 0.63
98. N266E  0.101 ± 0.94
99. I99P  0.0871 ± 0.35
100. L183R  0.0747 ± 0.097
101. L67Y  0.0744 ± 0.31
102. L67P  0.0421 ± 0.099
103. L164N  0.0402 ± 0.26
104. Y246P  -0.0491 ± 0.1
105. G242R  -0.0649 ± 0.095
106. D176C  -0.0937 ± 0.092
107. G242M  -0.0974 ± 0.093
108. R304Y  -0.17 ± 0.25
109. M289S  -0.188 ± 0.1
110. R297W  -0.193 ± 0.083
111. A76M  -0.216 ± 0.42
112. G58R  -0.318 ± 0.1
